# Data: PMC11074299, “Deciphering DED assembly mechanisms in FADD-procaspase-8-cFLIP complexes regulating apoptosis” (Nature Communications, 2024)
# B1: full-length FADD H9G mutant (FADD^FuL_H9G) (natural protein)
# chain: MDPFLVLLGSVSSSLSSSELTELKFLCLGRVGKRKLERVQSGLDLFSMLLEQNDLEPGHTELLRELLASLRRHDLLRRVDDFEAGAAAGAAPGEEDLCAAFNVICDNVGKDWRRLARQLKVSDTKIDSIEDRYPRNLTERVRESLRIWKNTEKENATVAHLVGALRSCQMNLVADLVQEVQQARDLQNRSGAMSPMSWNSDASTSEAS
# notes: Fas-associated protein with death domain (FADD), human, full length, H9G; only the DED is visible in the crystal structure (FADD DD not visible); A selenomethionine-substituted complex was also made for phasing (PDB 8YD7); also called FADD^DED molecule FAl; source: E. coli BL21-CodonPlus, co-purified in the ternary complex (Ni-NTA, SEC); not shown: 6xHis, C-terminal, kept
# B2: wild-type full-length FADD (FADD^FuL) (natural protein, human, UniProt Q13158 1-208, looked up)
# chain: MDPFLVLLHSVSSSLSSSELTELKFLCLGRVGKRKLERVQSGLDLFSMLLEQNDLEPGHTELLRELLASLRRHDLLRRVDDFEAGAAAGAAPGEEDLCAAFNVICDNVGKDWRRLARQLKVSDTKIDSIEDRYPRNLTERVRESLRIWKNTEKENATVAHLVGALRSCQMNLVADLVQEVQQARDLQNRSGAMSPMSWNSDASTSEAS
# notes: Fas-associated protein with death domain (FADD), human, wild type, full length; only the DED is visible in the cryo-EM maps; also called FA^FuL; WT FADD; source: E. coli BL21-CodonPlus; co-purified in the ternary complex (Ni-NTA, SEC); also in precipitates of overexpressed proteins resuspended in water; not shown: 6xHis, C-terminal, kept
# B3: full-length Casp-8 mutant F122G/L123G/C360A/D374A/D384A (natural protein, human, UniProt Q14790 1-479, looked up)
# chain: MDFSRNLYDIGEQLDSEDLASLKFLSLDYIPQRKQEPIKDALMLFQRLQEKRMLEESNLSFLKELLFRINRLDLLITYLNTRKEEMERELQTPGRAQISAYRVMLYQISEEVSRSELRSFKGGLQEEISKCKLDDDMNLLDIFIEMEKRVILGEGKLDILKRVCAQINKSLLKIINDYEEFSKERSSSLEGSPDEFSNGEELCGVMTISDSPREQDSESQTLDKVYQMKSKPRGYCLIINNHNFAKAREKVPKLHSIRDRNGTHLDAGALTTTFEELHFEIKPHDDCTVEQIYEILKIYQLMDHSNMDCFICCILSHGDKGIIYGTDGQEAPIYELTSQFTGLKCPSLAGKPKVFFIQAAQGDNYQKGIPVETASEEQPYLEMALSSPQTRYIPDEADFLLGMATVNNCVSYRNPAEGTWYIQSLCQSLRERCPRGDDILTILTEVNYEVSNKDDKKNMGKQMPQPTFTLRKKLVFPSD
# notes: procaspase-8 (Casp-8), human, full length with FGLG mutations, catalytic inactivity and processing deficiencies; only the tDED is visible in the cryo-EM maps (protease domain not visible); The methods name E. coli BL21-CodonPlus only for FADD, the Casp-8 tDED mutant and cFLIP tDED; also called Casp-8^tDED molecules C8a, C8b, C8c (triple-FADD complex)
# Tests used:
# [1] = target: B1; test: crystal structure; FA^FuL_H9G-C8^FGLG-CF^H7G complex; proteins individually expressed in E. coli, complex co-purified by Ni-NTA and SEC (80 mM NaCl, 20 mM Tris pH 8.0); hanging drop, 20 °C; MR-SAD; 3.1 Å; one 1:5:4 complex per asymmetric unit; FADD DD not visible; conditions: both partners purified
# cFLIP^tDED H7G mutant = cFLIP^tDED H7G mutant (human, UniProt O15519 1-181, H7G); test: as above; conditions: both partners purified
# [2] = target: B2; test: negative-stain EM; C8^FGLG purified by SEC, in the presence of WT FADD with a C-terminal His-tag; FADD detected by Ni-NTA Nanogold; SDS-PAGE of the EM sample; conditions: both partners purified
# [3] = target: the molecule itself; test: SEC + other: negative-stain EM; Casp-8^tDED_F122A and CF^H7G co-expressed; SEC profile, negative-stain EM and SDS-PAGE of the peak fractions
# [4] = target: B3; test: cryo-EM structure; FA^FuL-C8^FuL_FGLG_CADA-CF complex; Complex A without cross-linking (7.5 Å) and Complex B stabilised by GraFix, glutaraldehyde (3.7 Å); Casp-8 protease domain and FADD DD not visible; conditions: both partners purified
# wild-type cFLIP^tDED = wild-type cFLIP^tDED (human, UniProt O15519 1-181); test: as above; conditions: both partners purified
# [5] = target: the molecule itself; test: as above
binder,measurement,setting,value
"Casp-8^tDED_F122G/L123G mutant (domain or fragment, human, UniProt Q14790 1-185, looked up, procaspase-8 (Casp-8) tandem DED, human, residues 1-185, F122G/L123G (FGLG) in the FL motif of DED2; The methods name no tag for this protein; also called C8^FGLG; source: E. coli BL21-CodonPlus; co-purified in the ternary complex (Ni-NTA, SEC); also purified alone by SEC) MDFSRNLYDIGEQLDSEDLASLKFLSLDYIPQRKQEPIKDALMLFQRLQEKRMLEESNLSFLKELLFRINRLDLLITYLNTRKEEMERELQTPGRAQISAYRVMLYQISEEVSRSELRSFKGGLQEEISKCKLDDDMNLLDIFIEMEKRVILGEGKLDILKRVCAQINKSLLKIINDYEEFSKER",binding result,[1],binds
same,binding result,cFLIP^tDED H7G mutant,binds
same,binding result,[2],binds
"Casp-8^tDED F122A mutant (Casp-8^tDED_F122A) (domain or fragment, human, UniProt Q14790 1-185, looked up, source: E. coli, co-expressed with CF^H7G, SEC) MDFSRNLYDIGEQLDSEDLASLKFLSLDYIPQRKQEPIKDALMLFQRLQEKRMLEESNLSFLKELLFRINRLDLLITYLNTRKEEMERELQTPGRAQISAYRVMLYQISEEVSRSELRSFKALLQEEISKCKLDDDMNLLDIFIEMEKRVILGEGKLDILKRVCAQINKSLLKIINDYEEFSKER",binding result,[3],binds
B1,binding result,cFLIP^tDED H7G mutant,binds
B2,binding result,[4],binds
B3,binding result,wild-type cFLIP^tDED,binds
same,stoichiometry N,[5],3
